From patent publication US20170015720A1 (published 2017) come the findings set out here.

T1: CLDN6 (Claudin-6) peptide on HLA-A*02:01 (human)
T1 peptide: QILGVVLTL

T2: CLDN6 (Claudin-6) peptide on HLA-A*02:01 (human)
T2 peptide: ALFGLLVYL

B1: TCRCD8-mC16#7 (TCR, V domains shown)
Valpha: GDSVTQTEGQVALSEEDFLTIHCNYSASGYPALFWYVQYPGEGPQFLFRASRDKEKGSSRGFEATYDKGTTSFHLRKASVQESDSAVYYCALGNNYAQGLTFGLGTRVSVFP
Vbeta: EAAVTQSPRSKVAVTGGKVTLSCHQTNNHDYMYWYRQDTGHGLRLIHYSYVADSTEKGDIPDGYKASRPSQENFSLILELASLSQTAVYFCASSTGNERLFFGHGTKLSVL
B2: TCRCD8-mC16#12 (TCR, V domains shown)
Valpha: GEQVEQRPPHLSVREGDSAVITCTYTDPNSYYFFWYKQEPGASLQLLMKVFSSTEINEGQGFTVLLNKKDKRLSLNLTAAHPGDSAAYFCAVESSSFSKLVFGQGTSLSVVP
Vbeta: NSKVIQTPRYLVKGQGQKAKMRCIPEKGHPVVFWYQQNKNNEFKFLINFQNQEVLQQIDMTEKRFSAECPSNSPCSLEIQSSEAGDSALYLCASSLTGGAQDTQYFGPGTRLLVL
B3: TCRCD8-mC16#14 (TCR, V domains shown)
Valpha: GDQVEQSPSALSLHEGTGSALRCNFTTTMRAVQWFRKNSRGSLINLFYLASGTKENGRLKSAFDSKERYSTLHIRDAQLEDSGTYFCAAEGGGNYKPTFGKGTSLVVHP
Vbeta: AQTIHQWPVAEIKAVGSPLSLGCTIKGKSSPNLYWYWQATGGTLQQLFYSITVGQVESVVQLNLSASRPKDDQFILSTEKLLLSHSGFYLCAWSPPINTEVFFGKGTRLTVV
B4: TCRCD8-mC16#8 (TCR, V domains shown)
Valpha: AQKVTQTQTSISVVEKTTVTMDCVYETRDSSYFLFWYKQTASGEIVFLIRQDSYKKENATVGHYSLNFQKPKSSIGLIITATQIEDSAVYFCAMREAANSGTYQRFGTGTKLQVVP
Vbeta: DPKIIQKPKYLVAVTGSEKILICEQYLGHNAMYWYRQSAKKPLEFMFSYSYQKLMDNQTASSRFQPQSSKKNHLDLQITALKPDDSATYFCASSQQNSGNTLYFGEGSRLIVV
B5: TCRCD8-mC16#18 (TCR, V domains shown)
Valpha: GDSVTQTEGPVTVSESESLIINCTYSATSIAYPNLFWYVRYPGEGLQLLLKVITAGQKGSSRGFEATYNKETTSFHLQKASVQESDSAVYYCALGETGSFNKLTFGAGTRLAVCP
Vbeta: NSKVIQTPRYLVKGQGQKAKMRCIPEKGHPVVFWYQQNKNNEFKFLINFQNQEVLQQIDMTEKRFSAECPSNSPCSLEIQSSEAGDSALYLCASSLGIYEQYFGPGTRLTVL
B6: TCRCD8-mC16#1 (TCR, V domains shown)
Valpha: AQSVTQPDARVTVSEGASLQLRCKYSYFGTPYLFWYVQYPRQGLQLLLKYYPGDPVVQGVNGFEAEFSKSNSSFHLRKASVHWSDWAVYFCAVSMSSGTYQRFGTGTKLQVVP
Vbeta: DMKVTQMPRYLIKRMGENVLLECGQDMSHETMYWYRQDPGLGLQLIYISYDVDSNSEGDIPKGYRVSRKKREHFSLILDSAKTNQTSVYFCASSSQNQDTQYFGPGTRLLVL
B7: TCRCD8-mC16#2 (TCR, V domains shown)
Valpha: GDSVTQTEGQVTVSESKSLIINCTYSATSIGYPNLFWYVRYPGEGLQLLLKVITAGQKGSSRGFEATYNKEATSFHLQKASVQESDSAVYYCALNNQGKLIFGQGTKLSIKP
Vbeta: EAAVTQSPRNKVAVTGGKVTLSCNQTNNHNNMYWYRQDTGHGLRLIHYSYGAGSTEKGDIPDGYKASRPSQENFSLILELATPSQTSVYFCASGGDSQNTLYFGAGTRLSVL

In the first experiment the target is T1, CLDN6 (Claudin-6) peptide on HLA-A*02:01. Description: cytokine release.
For B1, the binding result is listed as “recognises”.

A further experiment addresses T2, CLDN6 (Claudin-6) peptide on HLA-A*02:01. Put plainly: killing.
Take B2: the binding result was “recognises”. On the same count and under the same terms, the entry for B3 is “recognises”; for B4 it is “recognises”; for B5 it is “recognises”.

For the molecule B6, the binding result was “recognises”. The same measure, in the same setting: next, B7: “recognises”.
